Source: paper PMC3731144 (Proteins, 2012)

Assays:
[1] = target: gp120YU2 D474A (HIV-1 strain YU2); assay: SPR
[2] = target: gp120YU2 E102A (HIV-1 strain YU2); assay: SPR
[3] = target: gp120YU2 K97A (HIV-1 strain YU2); assay: SPR
[4] = target: gp120YU2 T257A (HIV-1 strain YU2); assay: SPR
CCR5-utilizing virus = details: ref [4]; cited from earlier work

Substance | Kd [1] [nM] | RU bound at the end of association (500 nM CD4) [1] [RU] | Kd [2] [nM] | Kd [3] [nM] | Kd [4] [nM] | RU bound at the end of association (500 nM CD4) [4] [RU] | antiviral effectiveness by tropism (CCR5-utilizing virus)
Hexahis-tagged 4-domain soluble CD4 (receptor) | 5 | 47 | 3 | 10 | 5 | 23 | 
maraviroc |  |  |  |  |  |  | only effective against solely CCR5-utilizing virus
